Data taken from patent US20230265151A1, “GIP/GLP1 CO-AGONIST COMPOUNDS” (priority 2020, published 2023).
Substitutions are numbered along the chain they refer to. *1 amine or outer side, *2 acyl side, *3 side chain or, on linkers, in order; H or OH if unused. Where no end group is shown, it is not given here. Side-chain parts run from the residue outwards. [ ]: non-standard residue; d: D form. The star is where a group is joined. αMePhe(2-F) = C[C@](N)(Cc1ccccc1F)C(=O)O; γGlu = O=C(O)[C@H](CCC(=O)[*:2])N[*:1]; C14 diacid = O=C(O)CCCCCCCCCCCCC(=O)*; αMeY = C[C@](N)(Cc1ccc(O)cc1)C(=O)O; αMeL = CC(C)C[C@](C)(N)C(=O)O; Orn = NCCC[C@H](N)C(=O)O; AEEA = NCCOCCOCC(=O)O; Aib = CC(C)(N)C(=O)O

B1: Y-Aib-EGT-αMeF(2F)-TSDV-Aib-I-αMeL-LD-Orn … (peptide)
peptide: Y[Aib]EGT[αMePhe(2-F)]TSDV[Aib]I[αMeL]LD[Orn]QAQ[Aib][Orn]FIK([AEEA-AEEA-γGlu-C14 diacid])[αMeY]LIK([AEEA-AEEA-γGlu-C14 diacid])GGPSSGAPPPS-NH2
modifications: N-terminus assumed
SMILES: CC[C@H](C)[C@H](NC(=O)[C@H](CC(C)C)NC(=O)[C@](C)(Cc1ccc(O)cc1)NC(=O)[C@H](CCCCNC(=O)COCCOCCNC(=O)COCCOCCNC(=O)CC[C@H](NC(=O)CCCCCCCCCCCCC(=O)O)C(=O)O)NC(=O)[C@@H](NC(=O)[C@H](Cc1ccccc1)NC(=O)[C@H](CCCN)NC(=O)C(C)(C)NC(=O)[C@H](CCC(N)=O)NC(=O)[C@H](C)NC(=O)[C@H](CCC(N)=O)NC(=O)[C@H](CCCN)NC(=O)[C@H](CC(=O)O)NC(=O)[C@H](CC(C)C)NC(=O)[C@](C)(CC(C)C)NC(=O)[C@@H](NC(=O)C(C)(C)NC(=O)[C@@H](NC(=O)[C@H](CC(=O)O)NC(=O)[C@H](CO)NC(=O)[C@@H](NC(=O)[C@](C)(Cc1ccccc1F)NC(=O)[C@@H](NC(=O)CNC(=O)[C@H](CCC(=O)O)NC(=O)C(C)(C)NC(=O)[C@@H](N)Cc1ccc(O)cc1)[C@@H](C)O)[C@@H](C)O)C(C)C)[C@@H](C)CC)[C@@H](C)CC)C(=O)N[C@@H](CCCCNC(=O)COCCOCCNC(=O)COCCOCCNC(=O)CC[C@H](NC(=O)CCCCCCCCCCCCC(=O)O)C(=O)O)C(=O)NCC(=O)NCC(=O)N1CCC[C@H]1C(=O)N[C@@H](CO)C(=O)N[C@@H](CO)C(=O)NCC(=O)N[C@@H](C)C(=O)N1CCC[C@H]1C(=O)N1CCC[C@H]1C(=O)N1CCC[C@H]1C(=O)N[C@@H](CO)C(N)=O
B2: Y-Aib-EGT-αMeF(2F)-TSDY-Aib-I-αMeL-LD-Orn-IAQ-Aib-Orn-FIK((2-[2-(2-Amino-ethoxy)-ethoxy]-acetyl)3-(γ-Glu)--(10-(4-carboxyphenoxy)decanoyl))-αMeY-LIK((2-[2-(2-Am … (peptide)
peptide: YXEGTXTSDYXIXLDXIAQXXFIKXLIKGGPSSGAPPPS
modifications: Aib2, αMeF(2F)6, Aib11, αMeL13, Orn16, Aib20, Orn21, K24(Z1), αMeY25, K28(Z1), C-term NH2; Z1=AEEA3-(γ-Glu)-(10-(4-carboxyphenoxy)decanoyl)
B3: Y-Aib-EGT-αMeF(2F)-TSDY-Aib-I-αMeL-LD-Orn-IAQ-Aib-Orn-FIK((2-[2-(2-Amino-ethoxy)-ethoxy]-acetyl)3-(γ-Glu)-CO-(CH2)12-CO2H)-αMeY-LIK((2-[2-(2-Amino-ethoxy)-ethox … (peptide)
peptide: B2 peptide
modifications: Aib2, αMeF(2F)6, Aib11, αMeL13, Orn16, Aib20, Orn21, K24(Z1), αMeY25, K28(Z1), C-term NH2; Z1=AEEA3-(γ-Glu)-CO-(CH2)12-CO2H
B4: Y-Aib-EGT-αMeF(2F)-TSD-4Pal-Aib-I-αMeL-LD-Orn-QAQ-Aib-Orn-FIK((2-[2-(2-Amino-ethoxy)-ethoxy]-acetyl)-Ahx-(γ-Glu)-CO-(CH2)12-CO2)-αMeY-LIK((2-[2-(2-Amino-ethoxy) … (peptide)
peptide: B2 peptide with Y10X, I17Q
modifications: Aib2, αMeF(2F)6, 4Pal10, Aib11, αMeL13, Orn16, Aib20, Orn21, K24(Z1), αMeY25, K28(Z1), C-term NH2; Z1=AEEA-Ahx-(γ-Glu)-CO-(CH2)12-CO2 (so in the source)
B5: Y-Aib-EGT-αMeF(2F)-TSD-4Pal-Aib-I-αMeL-LD-Orn-QAQ-Aib-Orn-FIK((2-[2-(2-Amino-ethoxy)-ethoxy]-acetyl)3-(γ-Glu)--(10-(4-carboxyphenoxy)decanoyl))-αMeY-LIK((2-[2-( … (peptide)
peptide: B2 peptide with Y10X, I17Q
modifications: Aib2, αMeF(2F)6, 4Pal10, Aib11, αMeL13, Orn16, Aib20, Orn21, K24(Z1), αMeY25, K28(Z1), C-term NH2; Z1=AEEA3-(γ-Glu)-(10-(4-carboxyphenoxy)decanoyl)
B6: Y-Aib-EGT-αMeF(2F)-TSD-4Pal-Aib-I-αMeL-LD-Orn-QAQ-Aib-Orn-FIK(PEG6-(γ-Glu)-(10-(4-carboxyphenoxy)decanoyl))-αMeY-LIK(PEG6-(γ-Glu)-(10-(4-carboxyphenoxy)decanoyl … (peptide)
peptide: B2 peptide with Y10X, I17Q
modifications: Aib2, αMeF(2F)6, 4Pal10, Aib11, αMeL13, Orn16, Aib20, Orn21, K24(Z1), αMeY25, K28(Z1), C-term NH2; Z1=PEG6-(γ-Glu)-(10-(4-carboxyphenoxy)decanoyl)
B7: Y-Aib-EGT-αMeF(2F)-TSD-4Pal-Aib-I-αMeL-LD-Orn-QAQ-Aib-Orn-FIK(PEG5-(γ-Glu)-(10-(4-carboxyphenoxy)decanoyl))-αMeY-LIK(PEG5-(γ-Glu)-(10-(4-carboxyphenoxy)decanoyl … (peptide)
peptide: B2 peptide with Y10X, I17Q
modifications: Aib2, αMeF(2F)6, 4Pal10, Aib11, αMeL13, Orn16, Aib20, Orn21, K24(Z1), αMeY25, K28(Z1), C-term NH2; Z1=PEG5-(γ-Glu)-(10-(4-carboxyphenoxy)decanoyl)
B8: Y-Aib-EGT-αMeF(2F)-TSD-4Pal-Aib-I-αMeL-LD-Orn-QAQ-Aib-Orn-FIK((2-[2-(2-Amino-ethoxy)-ethoxy]-acetyl)-(γ-Glu)-(2-[2-(2-Amino-ethoxy)-ethoxy]-acetyl)-(γ-Glu)-(10- … (peptide)
peptide: B2 peptide with Y10X, I17Q
modifications: Aib2, αMeF(2F)6, 4Pal10, Aib11, αMeL13, Orn16, Aib20, Orn21, K24(Z1), αMeY25, K28(Z1), C-term NH2; Z1=AEEA-(γ-Glu)-AEEA-(γ-Glu)-(10-(4-carboxyphenoxy)decanoyl)

Columns and labels:
[1] = target: T1, human GIP receptor (human, UniProt P48546 22-466); assay: SPA competition vs [125I]-GIP, hGIPR membranes
T1 construct: whole, on cells; also called hGIPR; human glucose-dependent insulinotropic polypeptide receptor
T1 sequence (looked up): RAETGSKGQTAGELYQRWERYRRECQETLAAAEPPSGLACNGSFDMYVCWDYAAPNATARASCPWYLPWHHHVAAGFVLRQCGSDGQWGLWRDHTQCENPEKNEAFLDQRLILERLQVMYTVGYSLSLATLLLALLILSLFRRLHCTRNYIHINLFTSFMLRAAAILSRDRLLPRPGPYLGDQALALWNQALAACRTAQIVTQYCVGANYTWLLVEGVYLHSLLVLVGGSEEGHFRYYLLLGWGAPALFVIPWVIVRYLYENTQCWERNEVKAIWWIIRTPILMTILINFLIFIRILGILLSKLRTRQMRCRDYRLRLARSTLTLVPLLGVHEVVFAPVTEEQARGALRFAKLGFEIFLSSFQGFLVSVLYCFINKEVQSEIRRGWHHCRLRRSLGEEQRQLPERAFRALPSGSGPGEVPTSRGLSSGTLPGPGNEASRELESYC

[2] = target: T2, human glucagon receptor (human, UniProt P47871 26-477); assay: SPA competition vs [125I]-Gcg, hGcgR membranes
T2 construct: whole, on cells; also called hGCGR; hGcgR
T2 sequence (P47871 26-477): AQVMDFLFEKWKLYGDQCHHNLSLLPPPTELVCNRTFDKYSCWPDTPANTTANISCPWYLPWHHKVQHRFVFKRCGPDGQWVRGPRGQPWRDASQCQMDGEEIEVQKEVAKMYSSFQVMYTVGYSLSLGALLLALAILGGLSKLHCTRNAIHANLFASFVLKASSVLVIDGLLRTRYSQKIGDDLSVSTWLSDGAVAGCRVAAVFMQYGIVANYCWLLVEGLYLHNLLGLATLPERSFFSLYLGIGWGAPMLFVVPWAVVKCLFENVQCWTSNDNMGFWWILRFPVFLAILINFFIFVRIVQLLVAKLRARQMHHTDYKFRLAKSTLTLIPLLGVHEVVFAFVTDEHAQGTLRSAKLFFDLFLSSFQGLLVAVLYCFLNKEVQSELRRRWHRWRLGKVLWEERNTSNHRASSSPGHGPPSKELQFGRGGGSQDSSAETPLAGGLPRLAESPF

[3] = target: T3, human GLP-1 receptor (human, UniProt P43220 24-463); assay: SPA competition vs [125I]-GLP-1, hGLP-1R membranes
T3 construct: whole, on cells; also called hGLP-1R; human glucagon-like peptide-1 receptor
Procedure, shortened: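 Competition binding in 25 mM HEPES pH 7.4, 2.5 mM CaCl₂, 1 mM MgCl₂, 0.1% bacitracin, 0.003% TWEEN-20, EDTA-free protease inhibitors. IC₅₀ from four-parameter nonlinear fit; Kᵢ given as geometric mean ± SEM, n = independent replicates on different days.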

Binder | Ki [1] [nM] | Ki [2] [nM] | Ki [3] [nM]
B1 | 0.0314 | 116 | 0.367
B2 | 0.0266 | 20.1 | 0.326
B3 | 0.0406 | 49.7 | 0.407
B4 | 0.0133 | 243 | 0.201
B5 | 0.0279 | 268 | 0.143
B6 | 0.0291 | 269 | 0.0943
B7 | 0.0387 | 144 | 0.0847
B8 | 0.0548 | 121 | 0.3
